According to the MegaScale stability set (Tsuboyama et al. 2023):

B1: EHEE_rd3_0053 (parent)
chain: TYTFKVDNKDQAKKAAKWAKKLGLSFQIEKHGDTFKITVQ
B2: HHH_rd1_0493 (parent)
chain: RDEDEKEKIKEALKRGNEDKAKEIAKRANVSPEEYERLRKEAE

Variants of: B1
Test: folding stability dG (cDNA display proteolysis); higher = more stable
Details: PBS, room temperature

Variant | folding stability dG [kcal/mol]
TYTFKVDNKDQAKKAAKWAKKLGLSFQIEKHGDVFKITVQ [T34V] | 2.71
TYTFKVDNKDQAKKAWKWAKKLGLSFQIEKHGDTFKITVQ [A16W] | 2.37
TYTFKVDNKDQAKKAIKWAKKLGLSFQIEKHGDTFKITVQ [A16I] | 2.73
TYTFKVDNKDQAKKAAKWAKKLGLSFQIEPHGDTFKITVQ [K30P] | 2.09
TYTFKVDNKDQAKKAAKWAFKLGLSFQIEKHGDTFKITVQ [K20F] | 2.07
TYTFKVDNKDQAKKAAKWAAKLGLSFQIEKHGDTFKITVQ [K20A] | 2.29
TYTFKVDNKDQAKKAAKWACKLGLSFQIEKHGDTFKITVQ [K20C] | 2.67
TYTFKVDNKDQAKKAAKHAKKLGLSFQIEKHGDTFKITVQ [W18H] | 1.22
TYTFKVDNKDQAKKAAKWLKKLGLSFQIEKHGDTFKITVQ [A19L] | 3.38
TYTFKVKNKDQAKKAAKWAKKLGLSFQIEKHGDTFKITVQ [D7K] | 2.77
TYTFKVDNKDQAKKAAKWAKKLGLSFQIEKRGDTFKITVQ [H31R] | 2.08
TYTFKVDNKDQAKKAAKWAKKLGLSFQIEKEGDTFKITVQ [H31E] | 2.93
TYTFNVDNKDQAKKAAKWAKKLGLSFQIEKHGDTFKITVQ [K5N] | 2.79
TYMFKVDNKDQAKKAAKWAKKLGLSFQIEKHGDTFKITVQ [T3M] | 1.99
TYSFKVDNKDQAKKAAKWAKKLGLSFQIEKHGDTFKITVQ [T3S] | 2.34
TYTFKVDNKDQAKKMAKWAKKLGLSFQIEKHGDTFKITVQ [A15M] | 2.5
TYTFKVDNKDQAKKAALWAKKLGLSFQIEKHGDTFKITVQ [K17L] | 2.5
TYTLKVDNKDQAKKAAKWAKKLGLSFQIEKHGDTFKITVQ [F4L] | 1.38
TYTEKVDNKDQAKKAAKWAKKLGLSFQIEKHGDTFKITVQ [F4E] | 0.316

Variant | folding stability dG [kcal/mol]
TYTFKVDNKDQAKKAAKWAKKLGLSFQIEKHGDTFLITVQ [K36L] | 3.18
TYTFKVDNWDQAKKAAKWAKKLGLSFQIEKHGDTFKITVQ [K9W] | 3.2
TYTFKVDNKDQAKKAAKWAKKLGLSFQIEKHGDTYKITVQ [F35Y] | 2.75
TYTFKVDNKDQAKKAAKWAKKLGLSFQIEKHGDTFKITRQ [V39R] | -0.567
TYTFKVDNKDQAKKAAKWAKKLGLSFQIEKHGDTFKITGQ [V39G] | -0.471
TYTFKVDNKDQAKKAAKWAKKLGLSFQSEKHGDTFKITVQ [I28S] | 1.26
TYTFKVDNKDQAKKAAKWAKKLGLSFQIEKHGDTFKIEVQ [T38E] | 1.1
TYTFKVDNKDQAKKAAKWAKKLGLSFQIEKHGDTFKILVQ [T38L] | 1.78
TYTFKVDNKDQAKKAAKWAKKLGWSFQIEKHGDTFKITVQ [L24W] | 2.04
TYTFKVDNKDQAKKAAKWAKKLGLFFQIEKHGDTFKITVQ [S25F] | 2.31
TYTFKVDNKDQAKKAAKWAKKLGLSFQIEKHGSTFKITVQ [D33S] | 2.33
TYTFKVDNKDQAKKAAKWAKKLGLSFQIEKHGGTFKITVQ [D33G] | 2.23
TYTFKVDTKDQAKKAAKWAKKLGLSFQIEKHGDTFKITVQ [N8T] | 2.78
TYTFKVDNKDQAWKAAKWAKKLGLSFQIEKHGDTFKITVQ [K13W] | 2.35
TYTFKPDNKDQAKKAAKWAKKLGLSFQIEKHGDTFKITVQ [V6P] | 0.243
TYTFKHDNKDQAKKAAKWAKKLGLSFQIEKHGDTFKITVQ [V6H] | 0.343
TYTFKVDNKDQAKKAAKWAKKLGLSHQIEKHGDTFKITVQ [F26H] | 1.02
TYTFKVDNKDQAKLAAKWAKKLGLSFQIEKHGDTFKITVQ [K14L] | 2.33

Variants of: B2
Test: as above
Details: PBS, room temperature

Variant | folding stability dG [kcal/mol]
RDEDEKEKIKEELKRGNEDKAKEIAKRANVSPEEYERLRKEAE [A12E] | 2.85
RDEDEKEKIKEPLKRGNEDKAKEIAKRANVSPEEYERLRKEAE [A12P] | 0.229
RDEDEKEKIKELLKRGNEDKAKEIAKRANVSPEEYERLRKEAE [A12L] | 3.02
RDEDEKEKIKEALKRGNEDDAKEIAKRANVSPEEYERLRKEAE [K20D] | 2.85
RDEDEKEKIKWALKRGNEDKAKEIAKRANVSPEEYERLRKEAE [E11W] | 1.91
RDEDEKEKIKHALKRGNEDKAKEIAKRANVSPEEYERLRKEAE [E11H] | 2.38
RDEDEKEKIKFALKRGNEDKAKEIAKRANVSPEEYERLRKEAE [E11F] | 1.56
RDEDEKEKIKEALKRGCEDKAKEIAKRANVSPEEYERLRKEAE [N17C] | 1.99
RDEDEKEKIKEALKRGIEDKAKEIAKRANVSPEEYERLRKEAE [N17I] | 1.54
RDEDEKEKIKEALKRGVEDKAKEIAKRANVSPEEYERLRKEAE [N17V] | 1.45
RDEDEKEKIKEALKRGNEDKAKLIAKRANVSPEEYERLRKEAE [E23L] | 2.16
RDEDEKEKIKEALKRGNEDKAKHIAKRANVSPEEYERLRKEAE [E23H] | 1.96
RDEDEKEKIKEALKRENEDKAKEIAKRANVSPEEYERLRKEAE [G16E] | 1.19
RDEDEKEKIKEALKRWNEDKAKEIAKRANVSPEEYERLRKEAE [G16W] | 0.968
RDEDEKEKIKEALKRGNEDKMKEIAKRANVSPEEYERLRKEAE [A21M] | 0.506
RDEDEKEYIKEALKRGNEDKAKEIAKRANVSPEEYERLRKEAE [K8Y] | 2.09
RDEDEKESIKEALKRGNEDKAKEIAKRANVSPEEYERLRKEAE [K8S] | 2.78
RDEDEKEFIKEALKRGNEDKAKEIAKRANVSPEEYERLRKEAE [K8F] | 2.12
RDEDEKEKIKEALKRGNELKAKEIAKRANVSPEEYERLRKEAE [D19L] | 2.98
RDEDEKEKIKEALKRGNEYKAKEIAKRANVSPEEYERLRKEAE [D19Y] | 2.5
RDEDEKEKIKEALKRGNEFKAKEIAKRANVSPEEYERLRKEAE [D19F] | 2.6

Variant | folding stability dG [kcal/mol]
RDEDEKEKIKEALKRGNEDKAHEIAKRANVSPEEYERLRKEAE [K22H] | 2.46
RDEDEKEKIKEALKRGNEDKATEIAKRANVSPEEYERLRKEAE [K22T] | 2.24
RDEDEKEKIKEALKRGNEDKAREIAKRANVSPEEYERLRKEAE [K22R] | 3.21
RDEDEKEKIKEALKRGNEDKAEEIAKRANVSPEEYERLRKEAE [K22E] | 2.26
RDEDEKYKIKEALKRGNEDKAKEIAKRANVSPEEYERLRKEAE [E7Y] | 2.85
RDEDEKWKIKEALKRGNEDKAKEIAKRANVSPEEYERLRKEAE [E7W] | 3.29
RDEDEKHKIKEALKRGNEDKAKEIAKRANVSPEEYERLRKEAE [E7H] | 2.94
RDEDEKQKIKEALKRGNEDKAKEIAKRANVSPEEYERLRKEAE [E7Q] | 3.13
RDEDEKMKIKEALKRGNEDKAKEIAKRANVSPEEYERLRKEAE [E7M] | 3.12
RHEDEKEKIKEALKRGNEDKAKEIAKRANVSPEEYERLRKEAE [D2H] | 3.05
RWEDEKEKIKEALKRGNEDKAKEIAKRANVSPEEYERLRKEAE [D2W] | 3.17
RDEDEKEKITEALKRGNEDKAKEIAKRANVSPEEYERLRKEAE [K10T] | 1.7
RDEDEKEKIEEALKRGNEDKAKEIAKRANVSPEEYERLRKEAE [K10E] | 0.847
RDEDEKEKEKEALKRGNEDKAKEIAKRANVSPEEYERLRKEAE [I9E] | 0.589
RDEDEKEKIKEALKRGNEDKAKEIAKRANVSPEEYERLRQEAE [K40Q] | 3.26
RDEDEKEKIKEALKRGNEDKAKEIAKRANVSPEEYERLRSEAE [K40S] | 2.9
RDEDEKEKIKEALKRGNEDKAKEIAKRANVSPETYERLRKEAE [E34T] | 1.51
RDEDEKEKIKEALKRGNEDKAKEIAKRANVSPEYYERLRKEAE [E34Y] | 0.926
RDEDEKEKIKEALKRGNEDKAKEIAKRANVSPEHYERLRKEAE [E34H] | 0.903
RDEDEKEKIKEADKRGNEDKAKEIAKRANVSPEEYERLRKEAE [L13D] | 0.379
RDEDEKEKIKEAGKRGNEDKAKEIAKRANVSPEEYERLRKEAE [L13G] | 0.235

Variant | folding stability dG [kcal/mol]
RDEDEKEKIKEALKRGNEDKAKEIAKRANVSPEEYERLRKEPE [A42P] | 0.795
RDEDEKEKIKEALKRGNEDKAKEIAKRANVSPEEYERLRKENE [A42N] | 1.81
RDEDKKEKIKEALKRGNEDKAKEIAKRANVSPEEYERLRKEAE [E5K] | 2.24
RDEDHKEKIKEALKRGNEDKAKEIAKRANVSPEEYERLRKEAE [E5H] | 3.3
RDEDEKEKIKEALKRGNEDKAKEIEKRANVSPEEYERLRKEAE [A25E] | 0.618
RDEDEKEKIKEALKRGNEDKAKEIAKRANWSPEEYERLRKEAE [V30W] | 1.73
RDEDEKEKIKEALKRGNEDKAKEIAKRANLSPEEYERLRKEAE [V30L] | 3.09
RDEDEKEKIKEALKRGNEDKAKEIAKRANCSPEEYERLRKEAE [V30C] | 1.69
RDEDEKEKIKEALKRGNEDKAKEIAKRANFSPEEYERLRKEAE [V30F] | 2.3
RDEDEKEKIKEALKTGNEDKAKEIAKRANVSPEEYERLRKEAE [R15T] | 2.81
RDEDEKEKIKEALKEGNEDKAKEIAKRANVSPEEYERLRKEAE [R15E] | 3.24
RDEDEKEKIKEALKHGNEDKAKEIAKRANVSPEEYERLRKEAE [R15H] | 3
RDEDEKEKIKEALKRGNEDKAKEIAKRANVSPIEYERLRKEAE [E33I] | 2.19
RDEDEKEKIKEALKRGNEDKAKEIAKRANVSPMEYERLRKEAE [E33M] | 2.33
RDEDEKEKIKEALKRGNEDKAKEIAKRANVSSEEYERLRKEAE [P32S] | 2.67
RDEDEKEKIKEALKRGNEDKAKEIAKRANVSPEENERLRKEAE [Y35N] | -0.057
RDEDEKEKIKEALKRGNEDKAKEIAKRANVSPEESERLRKEAE [Y35S] | 0.291
RDEDEIEKIKEALKRGNEDKAKEIAKRANVSPEEYERLRKEAE [K6I] | 3.24
RDEDEFEKIKEALKRGNEDKAKEIAKRANVSPEEYERLRKEAE [K6F] | 3.23
RDEDEWEKIKEALKRGNEDKAKEIAKRANVSPEEYERLRKEAE [K6W] | 3.32
RDEDEKEKIKEALHRGNEDKAKEIAKRANVSPEEYERLRKEAE [K14H] | 2.28

Variant | folding stability dG [kcal/mol]
RDEDEKEKIKEALQRGNEDKAKEIAKRANVSPEEYERLRKEAE [K14Q] | 2.3
RDEDEKEKIKEALKRGNEDKAKEIAKRANVSPEEYERSRKEAE [L38S] | 0.378
RDEDEKEKIKEALKRGNEDKAKEIAKRANVSPEEYERYRKEAE [L38Y] | 1.85
RDEDEKEKIKEALKRGNEDKAKEIAKRANVSPEEYERERKEAE [L38E] | 0.322
RDEDEKEKIKEALKRGNEDKAKEIAKRANVSPEEYERMRKEAE [L38M] | 2.26
RDEDEKEKIKEALKRGNEDKAKEIAVRANVSPEEYERLRKEAE [K26V] | 2.73
RDEDEKEKIKEALKRGNEDKAKEIAKRANVSPEEYARLRKEAE [E36A] | 2.31
RDEDEKEKIKEALKRGNEDKAKEIAKRANVSPEEYIRLRKEAE [E36I] | 1.88
RDEDEKEKIKEALKRGNEDKAKEIAKRANVSPEEYGRLRKEAE [E36G] | 1.13
RDEDEKEKIKEALKRGNEDKAKEIAKRDNVSPEEYERLRKEAE [A28D] | 1.36
RDEDEKEKIKEALKRGNEDKAKEIAKRHNVSPEEYERLRKEAE [A28H] | 2.83
RDEDEKEKIKEALKRGNEDKAKEIAKWANVSPEEYERLRKEAE [R27W] | 2
RDEDEKEKIKEALKRGNEDKAKEIAKRANVSPEEYEELRKEAE [R37E] | 2.4
RDEDEKEKIKEALKRGNEDKAKEIAKRANVSPEEYERLRKEAD [E43D] | 2.56
RDEDEKEKIKEALKRGNEDKAKEIAKRANVSPEEYERLRKEAG [E43G] | 2.47
RDEDEKEKIKEALKRGNEDKAKEIAKRAMVSPEEYERLRKEAE [N29M] | 2.51
RDEDEKEKIKEALKRGNEDKAKEIAKRALVSPEEYERLRKEAE [N29L] | 2.22
RDEDEKEKIKEALKRGNEDKAKEIAKRAAVSPEEYERLRKEAE [N29A] | 2.34
RDEDEKEKIKEALKRGNKDKAKEIAKRANVSPEEYERLRKEAE [E18K] | 2.25
RDEDEKEKIKEALKRGNADKAKEIAKRANVSPEEYERLRKEAE [E18A] | 2.59
